Legend:
[1] = biological target: SIY peptide on H-2Kb (mouse); experiment: value stated for 2C in the legend of FIG. 16, no measurement described; given for scTv and full-length constructs alike
[2] = biological target: SIY peptide on H-2Kb (mouse); experiment: value cited from Chervin et al. 2009 (ref 18); not measured in this filing
[3] = biological target: SIY peptide on H-2Kb (mouse); experiment: value stated for m33 in the legend of FIG. 16, no measurement described; given for scTv and full-length constructs alike

Row | Kd [1] | Kd [2] | Kd [3] | Substance
1 | 30000 nM |  |  | 2C full-length TCR
2 |  | 16 nM | 30 nM | m33 full-length TCR

Reference: US10464987B2
